Test results published in patent publication US20030119716A1, “Methods for screening, treating and diagnosing G-protein coupled receptor-related disorders and compositions thereof” (Wyeth, priority 2001, published 2003).

Assays:
Gαq/i chimera = test: cell-based or functional assay
Gαi1 = test: cell-based or functional assay

reduction in SRE activation (SRE-luciferase reporter, CHO-D2R cells) (Gαq/i chimera): 70% | attenuation of SRE activation (SRE-luciferase reporter, CHO-D2R cells co-transfected with Gαi1) (Gαi1): 25 to 30%
B1: human RGS2 (protein, UniProt P41220 1-211, looked up)
chain: MQSAMFLAVQHDCRPMDKSAGSGHKSEEKREKMKRTLLKDWKTRLSYFLQNSSTPGKPKTGKKSKQQAFIKPSPEEAQLWSEAFDELLASKYGLAAFRAFLKSEFCEENIEFWLACEDFKKTKSPQKLSSKARKIYTDFIEKEAPKEINIDFQTKTLIAQNIQEATSGCFTTAQKRVYSLMENNSYPRFLESEFYQDLCKKPQITTEPHAT
